Target: T1, TNF-β (lymphotoxin) (UniProt P01374 35-205, limits assumed)
T1 sequence (looked up): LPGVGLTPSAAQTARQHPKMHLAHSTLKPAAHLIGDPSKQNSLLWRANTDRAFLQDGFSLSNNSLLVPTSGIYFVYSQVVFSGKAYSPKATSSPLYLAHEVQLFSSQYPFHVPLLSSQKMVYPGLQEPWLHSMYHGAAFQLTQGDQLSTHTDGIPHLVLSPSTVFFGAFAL
Experiment: preliminary tests, analogous to the competition binding test

B1: TNF-binding protein (TNF-BP), natural, purified from dialyzed urine of uraemia patients (receptor)
chain: DSVCPQGKYIHPQNNSICCTKCHKGTYLYNDCPGPGQDTDCRECESGSFTASENHLRHCLSCSKCRKEMGQVEISSCTVDRDTVCGCRKNQYRHYWSENLFQCFNCSLCLNGTVHLSCQEKQNTVCTCHAGFFLRENECVSCSNCKKSLECTKLCLPQIEN
modifications: glycoprotein; Asn-25 glycosylated (numbering of the TNF-BP cDNA sequence, Leu-1 = first residue after the signal peptide)
notes: Main form (about 80 %) starts at Asp-12; In the preliminary tests it was used as concentrated dialyzed urine or partly purified preparations
affinity for TNF-β relative to its affinity for TNF-α: ~0.02 ratio (affinity for TNF-β / affinity for TNF-α)

Reference: patent US7282483 (Amgen, dated 2007)
